The target in assay [1] is T1, natural human type I interferon receptor (IFN-R) on the surface of human cells (human) (UniProt P17181).
T1 sequence: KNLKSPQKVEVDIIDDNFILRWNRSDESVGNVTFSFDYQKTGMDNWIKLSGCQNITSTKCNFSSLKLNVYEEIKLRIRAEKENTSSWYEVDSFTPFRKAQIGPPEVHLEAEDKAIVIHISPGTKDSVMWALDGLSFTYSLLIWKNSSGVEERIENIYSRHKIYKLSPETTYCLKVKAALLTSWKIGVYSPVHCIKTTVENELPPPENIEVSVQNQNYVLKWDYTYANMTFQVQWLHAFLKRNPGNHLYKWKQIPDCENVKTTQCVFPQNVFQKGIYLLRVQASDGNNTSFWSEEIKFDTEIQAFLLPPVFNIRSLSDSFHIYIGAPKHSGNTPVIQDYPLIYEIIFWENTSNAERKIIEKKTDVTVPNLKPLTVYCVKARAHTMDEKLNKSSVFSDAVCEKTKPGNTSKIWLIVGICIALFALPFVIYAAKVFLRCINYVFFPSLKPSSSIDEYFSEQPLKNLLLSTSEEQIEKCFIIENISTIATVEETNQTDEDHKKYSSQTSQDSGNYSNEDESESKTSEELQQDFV
Nature of the assay: inhibition of binding of 125I-IFN alpha 2 (100 pM) to HL60 cells, 4 C; competitor: labelled IFN alpha 2.

Assay [2] concerns the target T1, natural human type I interferon receptor (IFN-R) on the surface of human cells (human). Nature of the assay: inhibition of binding of 125I-IFN alpha 2 (100 pM) to Ly28 cells, 4 C; competitor: labelled IFN alpha 2.
For assay [3] the target is unchanged. Nature of the assay: inhibition of binding of 125I-IFN alpha 2 (100 pM) to Daudi cells, 4 C; competitor: labelled IFN alpha 2.
For assay [4] the target is unchanged. Nature of the assay: inhibition of binding of 125I-IFN alpha 2 (100 pM) to K562 cells, 4 C; competitor: labelled IFN alpha 2.

B1: monoclonal antibody 64G12 (antibody, from another filing, IgG1, V domains shown)
VH: QVTLKESGPGILKPSQTLSLTCSFSGFSLSTSGMGIGWIRQPSGKGLEWLAHIWWDDDKYYNPSLKSQLTISRDTSTNQVFLNITSVDTVDTATYYCGRNYYPYDAWFDYWGQGTLVTVS
VL: EIVLTQSPTTMAASPGEKITITCSASSSINSNHLHWYQQKPGFSPKVLIYRTSILASGVPTRFSGSGSGTSYSLTIGTMEAEDVATYYCQQGSNIPFTFGSGTELEIKR
On to B1, for which the half-inhibitory concentration (IC50) came out at 11 µg/mL in assay [1], 60 µg/mL in assay [2], 0.4 µg/mL in assay [3] and 0.4 µg/mL in assay [4].

These data come from patent publication US20040191840A1.
